# Results published in the supplement of paper PMC9112550, “Optimization of the antimicrobial peptide Bac7 by deep mutational scanning” (BMC Biology, 2022).
# System: Escherichia coli TOP10
# Experiment: shrunken log2 fold change of peptide-encoding DNA abundance (4.5 h post-induction vs induction); higher = less antimicrobial activity (less host growth inhibition)
# Conditions: time post-induction: 4.5 h; library: site-saturation at positions 5, 18, 19, 20
# 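Further: peptides expressed intracellularly from a pBAD plasmid library in pooled LB shake-flask culture, induced with 0.3% L-arabinose, DNA abundance read by NGS, three biological replicates, DESeq2 with apeglm shrinkage.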
row,Sequence,shrunken log2 fold change
1,RRIRRRPPRLPRPRPRPILDPRP,0.0526
2,RRIRTRPPRLPRPRPRPCQTPRP,-0.0283
3,RRIRNRPPRLPRPRPRPTSTPRP,-0.7
4,RRIRCRPPRLPRPRPRPPKKPRP,0.132
5,RRIRQRPPRLPRPRPRPHGCPRP,0.0414
6,RRIRLRPPRLPRPRPRPRNVPRP,-0.116
7,RRIRTRPPRLPRPRPRPTTMPRP,-0.109
8,RRIRWRPPRLPRPRPRPATNPRP,0.317
9,RRIRNRPPRLPRPRPRPKMSPRP,-0.064
10,RRIRPRPPRLPRPRPRPDVAPRP,-0.0448
11,RRIRTRPPRLPRPRPRPRMWPRP,0.227
12,RRIRIRPPRLPRPRPRPCNGPRP,-0.0882
13,RRIRPRPPRLPRPRPRPCQMPRP,0.0359
14,RRIRQRPPRLPRPRPRPQMVPRP,0.00426
15,RRIRERPPRLPRPRPRPWTFPRP,-0.292
16,RRIRSRPPRLPRPRPRPPAVPRP,0.711
17,RRIRARPPRLPRPRPRPYWIPRP,-0.556
18,RRIRYRPPRLPRPRPRPGTFPRP,-0.53
19,RRIRLRPPRLPRPRPRPYLIPRP,-0.274
20,RRIRERPPRLPRPRPRPWCVPRP,-0.94
21,RRIRARPPRLPRPRPRPGINPRP,-0.242
22,RRIRDRPPRLPRPRPRPFKYPRP,0.0966
23,RRIRPRPPRLPRPRPRPSDIPRP,-0.417
24,RRIRFRPPRLPRPRPRPGIDPRP,-0.0216
25,RRIRIRPPRLPRPRPRPYMPPRP,-1.27

row,Sequence,shrunken log2 fold change
1,RRIRMRPPRLPRPRPRPYRDPRP,-0.018
2,RRIRRRPPRLPRPRPRPFYAPRP,-0.0129
3,RRIRSRPPRLPRPRPRPIEQPRP,-0.0141
4,RRIRERPPRLPRPRPRPYTTPRP,-0.49
5,RRIRTRPPRLPRPRPRPKTFPRP,-0.00423
6,RRIRMRPPRLPRPRPRPAGRPRP,0.725
7,RRIRMRPPRLPRPRPRPVLVPRP,0.223
8,RRIRPRPPRLPRPRPRPNPSPRP,-0.138
9,RRIRTRPPRLPRPRPRPIATPRP,0.227
10,RRIRYRPPRLPRPRPRPRGWPRP,0.575
11,RRIRRRPPRLPRPRPRPCWQPRP,0.285
12,RRIRYRPPRLPRPRPRPTWFPRP,-0.351
13,RRIRVRPPRLPRPRPRPTMEPRP,-0.102
14,RRIRWRPPRLPRPRPRPWQYPRP,-0.0277
15,RRIRRRPPRLPRPRPRPTKFPRP,0.0982
16,RRIRCRPPRLPRPRPRPAQLPRP,-0.169
17,RRIRDRPPRLPRPRPRPFVHPRP,-0.0617
18,RRIRPRPPRLPRPRPRPSYSPRP,-0.149
19,RRIRLRPPRLPRPRPRPCHKPRP,-0.278
20,RRIRLRPPRLPRPRPRPAMYPRP,-0.139
21,RRIRKRPPRLPRPRPRPLISPRP,0.0452
22,RRIRARPPRLPRPRPRPSNIPRP,-0.447
23,RRIRVRPPRLPRPRPRPMDFPRP,-0.205
24,RRIRLRPPRLPRPRPRPYNRPRP,-0.113
25,RRIRQRPPRLPRPRPRPMGPPRP,-0.0254

row,Sequence,shrunken log2 fold change
1,RRIRRRPPRLPRPRPRPFIFPRP,0.25
2,RRIRKRPPRLPRPRPRPNVFPRP,0.154
3,RRIRTRPPRLPRPRPRPPSWPRP,0.345
4,RRIRNRPPRLPRPRPRPCEAPRP,-0.18
5,RRIRGRPPRLPRPRPRPIAPPRP,1.29
6,RRIRARPPRLPRPRPRPHPDPRP,0.395
7,RRIRYRPPRLPRPRPRPVAYPRP,-0.926
8,RRIRSRPPRLPRPRPRPVVQPRP,-0.0812
9,RRIRSRPPRLPRPRPRPGEIPRP,0.223
10,RRIRKRPPRLPRPRPRPLWSPRP,-0.014
11,RRIRIRPPRLPRPRPRPAKRPRP,0.0281
12,RRIRARPPRLPRPRPRPGLHPRP,0.275
13,RRIRGRPPRLPRPRPRPFASPRP,0.215
14,RRIRARPPRLPRPRPRPNEHPRP,0.0215
15,RRIRARPPRLPRPRPRPYHSPRP,-0.237
16,RRIRERPPRLPRPRPRPTRQPRP,0.588
17,RRIRDRPPRLPRPRPRPDAFPRP,0.297
18,RRIRMRPPRLPRPRPRPDDCPRP,0.681
19,RRIRTRPPRLPRPRPRPFCVPRP,-0.229
20,RRIRDRPPRLPRPRPRPGGGPRP,1.08
21,RRIRERPPRLPRPRPRPMPTPRP,-0.00177
22,RRIRSRPPRLPRPRPRPQAWPRP,-0.0983
23,RRIRPRPPRLPRPRPRPLWFPRP,0.173
24,RRIRIRPPRLPRPRPRPQFDPRP,-0.505
25,RRIRCRPPRLPRPRPRPQGHPRP,-0.0916

row,Sequence,shrunken log2 fold change
1,RRIRRRPPRLPRPRPRPQCDPRP,0.333
2,RRIRLRPPRLPRPRPRPASGPRP,0.373
3,RRIRDRPPRLPRPRPRPMMCPRP,-0.131
4,RRIRRRPPRLPRPRPRPDFGPRP,0.0803
5,RRIRWRPPRLPRPRPRPNESPRP,-0.0337
6,RRIRHRPPRLPRPRPRPMIAPRP,-0.0185
7,RRIRYRPPRLPRPRPRPVMFPRP,-0.899
8,RRIRRRPPRLPRPRPRPSTVPRP,-0.117
9,RRIRRRPPRLPRPRPRPHVCPRP,0.0988
10,RRIRPRPPRLPRPRPRPEPLPRP,0.0833
11,RRIRARPPRLPRPRPRPENVPRP,0.251
12,RRIRYRPPRLPRPRPRPNTNPRP,-1.09
13,RRIRDRPPRLPRPRPRPASMPRP,0.483
14,RRIRLRPPRLPRPRPRPCDQPRP,-0.016
15,RRIRQRPPRLPRPRPRPWLLPRP,-0.151
16,RRIRYRPPRLPRPRPRPGWEPRP,-0.143
17,RRIRHRPPRLPRPRPRPKSLPRP,-0.0347
18,RRIRQRPPRLPRPRPRPGWDPRP,0.135
19,RRIRTRPPRLPRPRPRPRIVPRP,-0.0873
20,RRIRNRPPRLPRPRPRPPDGPRP,0.313
21,RRIRTRPPRLPRPRPRPVVRPRP,-0.00389
22,RRIRWRPPRLPRPRPRPDEMPRP,-0.0412
23,RRIRARPPRLPRPRPRPVACPRP,0.284
24,RRIRSRPPRLPRPRPRPGCNPRP,0.0419
25,RRIRRRPPRLPRPRPRPPYQPRP,0.245

row,Sequence,shrunken log2 fold change
1,RRIRERPPRLPRPRPRPSRLPRP,0.0431
2,RRIRNRPPRLPRPRPRPSAYPRP,-0.42
3,RRIRDRPPRLPRPRPRPTGCPRP,0.247
4,RRIRQRPPRLPRPRPRPKFNPRP,-0.271
5,RRIRFRPPRLPRPRPRPMSGPRP,-0.0751
6,RRIRGRPPRLPRPRPRPINNPRP,-0.0606
7,RRIRPRPPRLPRPRPRPFDPPRP,-0.0325
8,RRIRHRPPRLPRPRPRPRASPRP,0.286
9,RRIRLRPPRLPRPRPRPGAVPRP,0.375
10,RRIRGRPPRLPRPRPRPPQWPRP,0.801
11,RRIRKRPPRLPRPRPRPFDRPRP,0.375
12,RRIRFRPPRLPRPRPRPGCFPRP,0.0214
13,RRIRARPPRLPRPRPRPTMRPRP,0.976
14,RRIRGRPPRLPRPRPRPSANPRP,0.858
15,RRIRYRPPRLPRPRPRPKMEPRP,-0.529
16,RRIRKRPPRLPRPRPRPPLFPRP,0.321
17,RRIRFRPPRLPRPRPRPKDPPRP,0.216
18,RRIRVRPPRLPRPRPRPSPTPRP,0.0219
19,RRIRQRPPRLPRPRPRPQIMPRP,-0.528
20,RRIRGRPPRLPRPRPRPFICPRP,0.268
21,RRIRMRPPRLPRPRPRPIVRPRP,-0.0408
22,RRIRARPPRLPRPRPRPWSKPRP,-0.27
23,RRIRWRPPRLPRPRPRPMVPPRP,-0.0589
24,RRIRFRPPRLPRPRPRPAGPPRP,0.118
25,RRIRMRPPRLPRPRPRPGRPPRP,0.383

row,Sequence,shrunken log2 fold change
1,RRIRQRPPRLPRPRPRPLFRPRP,-0.227
2,RRIRNRPPRLPRPRPRPSHKPRP,-0.291
3,RRIRDRPPRLPRPRPRPQRAPRP,0.0568
4,RRIRERPPRLPRPRPRPPYMPRP,-1.73
5,RRIRERPPRLPRPRPRPYCCPRP,-0.899
6,RRIRKRPPRLPRPRPRPFYEPRP,0.0368
7,RRIRWRPPRLPRPRPRPFIVPRP,-0.325
8,RRIRWRPPRLPRPRPRPKMHPRP,0.386
9,RRIRQRPPRLPRPRPRPSQEPRP,0.0169
10,RRIRERPPRLPRPRPRPQVFPRP,-0.0552
11,RRIRLRPPRLPRPRPRPPKTPRP,0.175
12,RRIRQRPPRLPRPRPRPCNYPRP,0.00177
13,RRIRARPPRLPRPRPRPSVSPRP,-0.457
14,RRIRLRPPRLPRPRPRPGKLPRP,-0.00186
15,RRIRYRPPRLPRPRPRPDHIPRP,0.0129
16,RRIRDRPPRLPRPRPRPTDGPRP,-0.107
17,RRIRIRPPRLPRPRPRPQEHPRP,-0.0111
18,RRIRCRPPRLPRPRPRPPDPPRP,0.459
19,RRIRNRPPRLPRPRPRPETRPRP,0.254
20,RRIRARPPRLPRPRPRPYDDPRP,0.192
21,RRIRIRPPRLPRPRPRPLQAPRP,0.0546
22,RRIRLRPPRLPRPRPRPGIDPRP,-0.0208
23,RRIRTRPPRLPRPRPRPTMCPRP,-0.416
24,RRIRSRPPRLPRPRPRPQVMPRP,-0.193
25,RRIRVRPPRLPRPRPRPSFRPRP,-0.42
